Assay [1] concerns the target ΔσAL RNAP (wild-type core RNAP with σ^70 lacking the acidic loop) (E. coli) (UniProt P0A7Z4).
Assay [2] addresses β′D256A RNAP (core RNAP with β′ D256A and wild-type σ^70) (E. coli) (UniProt P0A7Z4).
The target in assay [3] is wild-type RNAP (core RNAP with wild-type σ^70, for in vitro transcription) (E. coli) (UniProt P0A7Z4).
In assay [4] the target is Δσ1.1-RNAP (wild-type core RNAP with σ^70 lacking region 1.1) (E. coli) (UniProt P0A7Z4).
In assay [5] the target is T1, RNA polymerase β' subunit (E. coli, UniProt P0A8T7 1-1407).
T1 construct: RNA polymerase β' subunit, E. coli; As it stands in the holoenzyme m1; also called β’clamp; β’clamp-toe (β’CT)
Kind of assay: cryo-EM structure; RP-DksA/ppGpp: RNAP (20 μM) preincubated with DksA (100 μM) and ppGpp (2 mM) 5 min at 37 °C in 10 mM HEPES pH 8.0, 50 mM NaCl, 0.1 mM EDTA, 5 mM DTT, 5 mM MgCl2, then rrnBP1 DNA (40 μM) 5 min at 37 °C; 8 mM CHAPSO; two classes, RP1-DksA/ppGpp (3.62 Å) and RP2-DksA/ppGpp (3.58 Å). The following applies: both partners purified.

Another assay addresses T2, RNA polymerase β subunit (E. coli, UniProt P0A8V2 1-1342).
T2 construct: RNA polymerase β subunit, E. coli; As it stands in the holoenzyme m1; also called βlobe/Si1; βgate loop (βGL)
The assay is described as above. The following applies: both partners purified.

Residue numbers refer to the chain shown, from its start. Numbers in names are those of the source.

B1: DksA (natural protein, E. coli)
chain: MQEGQNRKTSSLSILAIAGVEPYQEKPGEEYMNEAQLAHFRRILEAWRNQLRDEVDRTVTHMQDEAANFPDPVDRAAQEEEFSLELRNRDRERKLIKKIEKTLKKVEDEDFGYCESCGVEIGIRRLEARPTADLCIDCKTLAEIREKQMAG
notes: DksA used for cryo-EM, with ppGpp (2 mM) in the sample; also called global transcriptional regulator DksA
In the case of B1, the K (d,app) of DksA from inhibition of in vitro transcription from rrnBP1 (DksA 10 nM to 10 μM), +ppGpp (100 μM) is 1150 nM in assay [1], 1640 nM in assay [2] and 860 nM in assay [3]. In addition, the K (d,app) of DksA from inhibition of in vitro transcription from rrnBP1 (DksA 10 nM to 10 μM), −ppGpp was 3000 nM in assay [1], 4.54 µM in assay [2], 2200 nM in assay [3] and over 10 µM in assay [4]. The binding result (in assay [5]; with RNA polymerase β subunit) was “binds” throughout.

B2: DksA D137A (natural protein)
chain: B1 chain with D137A
In assay [3], B2 gave a K (d,app) of DksA D137A from inhibition of in vitro transcription from rrnBP1 (DksA 10 nM to 10 μM), +ppGpp (100 μM) of 2440 nM and a K (d,app) of DksA D137A from inhibition of in vitro transcription from rrnBP1 (DksA 10 nM to 10 μM), −ppGpp of 3.9 µM.

Source of the values: article PMC7822876, “Structural basis of ribosomal RNA transcription regulation” (Nature Communications, 2020).
